Here are results for 5 molecules from article doi:10.1101/108647.

Read-outs that look alike come from different tables or passages of the source.

Series [1] has as its target T1, HisFlag-Mlh1 (MutLγ subunit);Mlh3 (MutLγ subunit) (Saccharomyces cerevisiae (S288c, …, UniProt P38920;Q12083 1-769;1-715, |)).
T1 sequence 1: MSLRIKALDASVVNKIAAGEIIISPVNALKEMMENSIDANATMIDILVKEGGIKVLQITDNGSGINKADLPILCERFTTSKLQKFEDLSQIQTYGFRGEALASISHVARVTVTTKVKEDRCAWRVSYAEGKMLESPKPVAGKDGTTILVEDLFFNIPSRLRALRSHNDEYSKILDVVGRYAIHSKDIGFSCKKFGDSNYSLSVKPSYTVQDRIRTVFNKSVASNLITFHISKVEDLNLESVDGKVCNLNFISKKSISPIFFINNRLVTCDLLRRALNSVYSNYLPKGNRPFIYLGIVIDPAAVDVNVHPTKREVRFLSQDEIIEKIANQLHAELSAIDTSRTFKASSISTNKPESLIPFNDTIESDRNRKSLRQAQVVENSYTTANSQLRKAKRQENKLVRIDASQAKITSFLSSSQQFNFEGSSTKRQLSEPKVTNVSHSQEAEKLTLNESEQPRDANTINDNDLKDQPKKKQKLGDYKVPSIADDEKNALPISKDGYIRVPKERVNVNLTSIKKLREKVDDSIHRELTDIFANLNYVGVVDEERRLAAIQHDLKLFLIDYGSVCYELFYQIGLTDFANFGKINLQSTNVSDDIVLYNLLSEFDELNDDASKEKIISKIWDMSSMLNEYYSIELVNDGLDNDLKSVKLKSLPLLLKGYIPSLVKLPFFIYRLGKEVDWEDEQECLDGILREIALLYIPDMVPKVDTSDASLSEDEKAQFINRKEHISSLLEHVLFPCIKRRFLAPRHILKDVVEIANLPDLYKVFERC
T1 sequence 2: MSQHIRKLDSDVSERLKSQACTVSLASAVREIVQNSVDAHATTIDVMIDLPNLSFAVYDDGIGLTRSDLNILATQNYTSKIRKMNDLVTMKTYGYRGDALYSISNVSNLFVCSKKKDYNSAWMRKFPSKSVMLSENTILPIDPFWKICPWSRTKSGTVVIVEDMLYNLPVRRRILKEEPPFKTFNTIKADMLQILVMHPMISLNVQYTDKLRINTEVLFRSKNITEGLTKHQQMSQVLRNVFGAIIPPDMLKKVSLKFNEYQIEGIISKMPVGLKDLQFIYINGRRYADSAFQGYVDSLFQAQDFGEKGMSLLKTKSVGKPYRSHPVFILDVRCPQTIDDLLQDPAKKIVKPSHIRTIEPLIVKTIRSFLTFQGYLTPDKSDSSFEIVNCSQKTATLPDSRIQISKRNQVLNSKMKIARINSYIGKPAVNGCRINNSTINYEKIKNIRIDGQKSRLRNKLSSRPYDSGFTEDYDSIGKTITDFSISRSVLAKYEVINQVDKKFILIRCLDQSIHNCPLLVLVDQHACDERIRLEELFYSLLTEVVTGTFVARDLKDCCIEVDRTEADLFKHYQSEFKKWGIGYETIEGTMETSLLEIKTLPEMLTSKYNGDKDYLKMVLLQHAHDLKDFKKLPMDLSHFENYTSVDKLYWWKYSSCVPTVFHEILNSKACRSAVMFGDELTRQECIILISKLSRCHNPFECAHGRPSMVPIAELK
Briefly: FeBABE footprinting.

In series [2] the target is T2, Mlh1 (untagged);HisFlag-Mlh3 (Saccharomyces cerevisiae (S288c, …, UniProt P38920;Q12083 1-769;1-715, |)).
T2 sequence 1: T1 sequence 1
T2 sequence 2: T1 sequence 2
Briefly: FeBABE footprinting.

In series [3] the target is T1, HisFlag-Mlh1 (MutLγ subunit);Mlh3 …. The series is described as follows: pull-down.
Series [4] deals with T2, Mlh1 (untagged);HisFlag-Mlh3. Briefly: FeBABE footprinting. The source holds these as a separate data set.
In series [5] the target is T1, HisFlag-Mlh1 (MutLγ subunit);Mlh3 …. Briefly: FeBABE footprinting. This is another data set of the same source.

B1: HJ+1 FeBABE (cb256/351/369/098) (structured_DNA)
DNA 1: CTAGTATAGAGCCGGCGCGCCATGTCTAGATAGCGTTAGGTCTGCCGAATAGTACTACTCGGATCCCGAGCGAACCACGC
DNA 2: GCGTGGTTCGCTCGGGATCCGAGTAGTACTATTCGGCAGAGGATTCGAATAGGCCTAATCGAATTCCGCCATCGATGCAC
DNA 3: GTGCATCGATGGCGGAATTCGATTAGGCCTATTCGAATCCAGACGCGAGTAGATCTTCACGGTACCCGCGGTTACCCGTG
DNA 4: CACGGGTAACCGCGGGTACCGTGAAGATCTACTCGCGTCTCCTAACGCTATCTAGACATGGCGCGCCGGCTCTATACTAG
modifications: phosphorothioate-FeBABE on strands 2 and 3, segment 1 (nearest the center); 3'-biotin on strand 1
Regarding B1, the binding result in series [1] and in series [2] was “binds” throughout.

B2: dsDNA80-biotin (cb256/cb100) (dsDNA)
DNA 1: B1 DNA 1
DNA 2: GCGTGGTTCGCTCGGGATCCGAGTAGTACTATTCGGCAGACCTAACGCTATCTAGACATGGCGCGCCGGCTCTATACTAG
modifications: 3'-biotin on strand 1
Turning to B2, the binding result in series [3] is listed as “no binding”.

B3: HJ80-biotin (cb256/096/097/098) (structured_DNA)
DNA 1: B1 DNA 1
DNA 2: B1 DNA 2
DNA 3: B1 DNA 3
DNA 4: B1 DNA 4
modifications: 3'-biotin on strand 1
As for B3, in series [3], the binding result is on record as “binds”.

B4: ssDNA+ FeBABE (cb361) (ssDNA)
DNA: TTTTTTTTTTTTTTTTTTTTTTTTTTTTTTTTTTTTTTTTTTTTTTTTTTTTTTTTTTTTTTTTTTTTTTTTTTTTTTTT
modifications: phosphorothioate-FeBABE after every 8 nt; 3'-biotin
With B4, the binding result in series [4] and in series [5] was “binds” in each case.

B5: ssDNA80-biotin (cb316) (ssDNA)
DNA: B4 DNA
modifications: 3'-biotin
As to B5, in series [3], the binding result is recorded as “binds”.
